Experimental findings from paper PMC11838285 (bioRxiv, 2025) are described below.

The test addresses RPB1 subunit of human RNA Polymerase II (human, UniProt P24928 1-1970). Put plainly: cryo-EM structure.

B1: RECQL5_(1–620) D157A (domain or fragment)
chain: MSSHHTTFPFDPERRVRSTLKKVFGFDSFKTPLQESATMAVVKGNKDVFVCMPTGAGKSLCYQLPALLAKGITIVVSPLIALIQDQVDHLLTLKVRVSSLNSKLSAQERKELLADLEREKPQTKILYITPEMAASSSFQPTLNSLVSRHLLSYLVVAEAHCVSQWGHDFRPDYLRLGALRSRLGHAPCVALTATATPQVQEDVFAALHLKKPVAIFKTPCFRANLFYDVQFKELISDPYGNLKDFCLKALGQEADKGLSGCGIVYCRTREACEQLAIELSCRGVNAKAYHAGLKASERTLVQNDWMEEKVPVIVATISFGMGVDKANVRFVAHWNIAKSMAGYYQESGRAGRDGKPSWCRLYYSRNDRDQVSFLIRKEVAKLQEKRGNKASDKATIMAFDALVTFCEELGCRHAAIAKYFGDALPACAKGCDHCQNPTAVRRRLEALERSSSWSKTCIGPSQGNGFDPELYEGGRKGYGDFSRYDEGSGGSGDEGRDEAHKREWNLFYQKQMQLRKGKDPKIEEFVPPDENCPLKEASSRRIPRLTVKAREHCLRLLEEALSSNRQSTRTADEADLRAKAVELEHETFRNAKVANLYKASVLKKVADIHRASKDGQPYDM
For the molecule B1, the binding result was “binds”.
